Laboratory results: patent US20240024501A1 (BONUM THERAPEUTICS, published 2024)
Where two headings read alike, the source gives them in different places.

How the values were obtained:
[1] = target: T1, PDL1-hFc-Avi (Acro Biosystems, PDL-H82F2) (UniProt Q9NZQ7 19-238, biotinylated); assay: ELISA: scFv captured at saturating level on anti-V5, titrated PDL1-hFc-Avi, streptavidin-HRP
AF33 [2] = target: T2, AF33; assay: ELISA: scFv captured at saturating level on anti-V5, titrated biotinylated AF33 (IL-15 fusion), streptavidin-HRP
T2 construct: also called IL-15; IL15

[3] = target: T1, PDL1-hFc-Avi (Acro Biosystems, …); assay: ELISA: scFv captured at saturating level on anti-V5, titrated PDL1-hFc-Avi, streptavidin-HRP; remark: listed apart in the source
AF33 [4] = target: T2, AF33; assay: ELISA: scFv captured at saturating level on anti-V5, titrated biotinylated AF33 (IL-15 fusion), streptavidin-HRP; remark: listed apart in the source
AF3099 = target: T3, AF3099; assay: ELISA as in Example 9: dilution series of the IFN-scFv complex captured on anti-V5, probed with IFNAR2-Biotin with or without PD-L1, streptavidin-HRP
T3 construct: IFNα-linker-DBA scFv variant complex

B1: AF636 (scFv)
scFv: MSTSTEQKLISEEDLQVQLVQSGAEVKKPGASVKVSCKASGYSFTSYYLHWVRQAPGQGLEWMGRISPRSGGTKNAQNFQGRVTMTRDTSTSTVYMELSSLRSEDTAVYYCVRSLFPTIFGVEVAFDIWGQGTLVTVSSASGGGGSGGGGSGGGGSHASDIQMTQSPSSLSASVGDRVTITCRASQSISSWLAWYQQKPGKAPKLLIYYASSLQSGVPSRFSGSGSGTDFTLTISSLQPEDFATYYCQQGYQYPYTFGQGTKLEIKGKPIPNPLLGLDST
- binding result [1]: binds
- binding result (AF33 [2]): binds

B2: AF635 (scFv)
scFv: MSTSTEQKLISEEDLQVQLVQSGAEVKKPGASVKVSCKASGYTFTGYYIHWVRQAPGQGLEWMGIINPSGGSTRYAQKFQGRVTMTRDTSTSTVYMELSSLRSEDTAVYYCARSLFPTIFGVEVAFDIWGQGTLVTVSSASGGGGSGGGGSGGGGSHASDIQMTQSPSSLSASVGDRVTITCRASQSIRTYLNWYQQKPGKAPKLLIYSASNLQSGVPSRFSGSGSGTDFTLTISSLQPEDFATYYCQQANSFPFTFGPGTKVDIKGKPIPNPLLGLDST
- binding result [3]: binds
- binding result (AF33 [4]): binds

B3: IFNAR2-Biotin (receptor)
chain: ISYDSPDYTDESCTFKISLRNFRSILSWELKNHSIVPTHYTLLYTIMSKPEDLKVVKNCANTTRSFCDLTDEWRSTHEAYVTVLEGFSGNTTLFSCSHNFWLAIDMSFEPPEFEIVGFTNHINVMVKFPSIVEEELQFDLSLVIEEQSEGIVKKHKPEIKGNMSGNFTYIIDKLIPNTNYCVSVYLEHSDEQAVIKSPLKCTLLPPGQESESAESAK
modifications: biotinylated
notes: also called biotinylated interferon receptor (IFNAR2)
- binding result (AF3099): no binding (tested: 0.5 % IFN-scFv)
